Experimental data from article PMC7748022.

T1: GST-PIF4 (UniProt Q8W2F3 1-430)
T1 sequence: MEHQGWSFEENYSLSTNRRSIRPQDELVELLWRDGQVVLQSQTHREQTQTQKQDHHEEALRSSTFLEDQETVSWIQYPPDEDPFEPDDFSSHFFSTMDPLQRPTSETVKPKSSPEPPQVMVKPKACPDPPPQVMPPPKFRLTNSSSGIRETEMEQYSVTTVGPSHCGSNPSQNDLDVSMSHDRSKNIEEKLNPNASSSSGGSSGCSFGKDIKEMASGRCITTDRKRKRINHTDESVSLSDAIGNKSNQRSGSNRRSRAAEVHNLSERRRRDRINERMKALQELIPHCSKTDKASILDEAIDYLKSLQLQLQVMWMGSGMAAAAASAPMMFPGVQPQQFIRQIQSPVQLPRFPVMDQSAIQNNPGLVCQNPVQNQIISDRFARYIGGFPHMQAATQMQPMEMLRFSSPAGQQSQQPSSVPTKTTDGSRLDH


What was measured:
[1] = target: T1, GST-PIF4; assay: EMSA
[2] = target: T1, GST-PIF4; assay: competition

Row | Binder | binding result [1] | binding result [2]
1 | PIF4 promoter probe (G-box) (dsDNA) DNA 1: ATTCCAACACAATGTCCCAGAACTTGCCACGTGTCGTTCATTTCAAAAGATTGCAGTACT DNA 2: AGTACTGCAATCTTTTGAAATGAACGACACGTGGCAAGTTCTGGGACATTGTGTTGGAAT | binds | 
2 | PIF4-MU probe (CACGTG to AACGTG) (dsDNA) DNA 1: ATTCCAACACAATGTCCCAGAACTTGCAACGTGTCGTTCATTTCAAAAGATTGCAGTACT DNA 2: AGTACTGCAATCTTTTGAAATGAACGACACGTTGCAAGTTCTGGGACATTGTGTTGGAAT |  | no binding
